This note sets out measurements from IntAct's records for PubMed 31515488.

B1: Breast cancer metastasis-suppressor 1 (Homo sapiens), Q9HCU9 (parent)
chain: MPVQPPSKDTEEMEAEGDSAAEMNGEEEESEEERSGSQTESEEESSEMDDEDYERRRSECVSEMLDLEKQFSELKEKLFRERLSQLRLRLEEVGAERAPEYTEPLGGLQRSLKIRIQVAGIYKGFCLDVIRNKYECELQGAKQHLESEKLLLYDTLQGELQERIQRLEEDRQSLDLSSEWWDDKLHARGSSRSWDSLPPSKRKKAPLVSGPYIVYMLQEIDILEDWTAIKKARAAVSPQKRKSDGP
B2: Carbonyl reductase [NADPH] 3 (Homo sapiens), O75828 (parent)
chain: MSSCSRVALVTGANRGIGLAIARELCRQFSGDVVLTARDVARGQAAVQQLQAEGLSPRFHQLDIDDLQSIRALRDFLRKEYGGLNVLVNNAAVAFKSDDPMPFDIKAEMTLKTNFFATRNMCNELLPIMKPHGRVVNISSLQCLRAFENCSEDLQERFHSETLTEGDLVDLMKKFVEDTKNEVHEREGWPNSPYGVSKLGVTVLSRILARRLDEKRKADRILVNACCPGPVKTDMDGKDSIRTVEEGAETPVYLALLPPDATEPQGQLVHDKVVQNW
B3: TBC1 domain family member 22B (Homo sapiens), Q9NU19 (parent)
chain: MAAENSKQFWKRSAKLPGSIQPVYGAQHPPLDPRLTKNFIKERSKVNTVPLKNKKASSFHEFARNTSDAWDIGDDEEEDFSSPSFQTLNSKVALATAAQVLENHSKLRVKPERSQSTTSDVPANYKVIKSSSDAQLSRNSSDTCLRNPLHKQQSLPLRPIIPLVARISDQNASGAPPMTVREKTRLEKFRQLLSSQNTDLDELRKCSWPGVPREVRPITWRLLSGYLPANTERRKLTLQRKREEYFGFIEQYYDSRNEEHHQDTYRQIHIDIPRTNPLIPLFQQPLVQEIFERILFIWAIRHPASGYVQGINDLVTPFFVVFLSEYVEEDVENFDVTNLSQDMLRSIEADSFWCMSKLLDGIQDNYTFAQPGIQKKVKALEELVSRIDEQVHNHFRRYEVEYLQFAFRWMNNLLMRELPLRCTIRLWDTYQSEPEGFSHFHLYVCAAFLIKWRKEILDEEDFQGLLMLLQNLPTIHWGNEEIGLLLAEAYRLKYMFADAPNHYRR
partner: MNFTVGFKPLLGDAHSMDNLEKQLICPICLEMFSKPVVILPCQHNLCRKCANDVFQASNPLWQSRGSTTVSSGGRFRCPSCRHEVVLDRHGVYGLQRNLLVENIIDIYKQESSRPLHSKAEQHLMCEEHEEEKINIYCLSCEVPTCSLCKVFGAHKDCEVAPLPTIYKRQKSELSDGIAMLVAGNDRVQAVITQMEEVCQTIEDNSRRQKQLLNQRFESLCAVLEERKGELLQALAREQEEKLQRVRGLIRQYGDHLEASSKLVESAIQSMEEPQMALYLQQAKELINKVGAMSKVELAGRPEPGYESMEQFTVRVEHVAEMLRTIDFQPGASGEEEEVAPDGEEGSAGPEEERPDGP
B4: THAP domain-containing protein 7 (Homo sapiens), Q9BT49 (parent)
chain: MPRHCSAAGCCTRDTRETRNRGISFHRLPKKDNPRRGLWLANCQRLDPSGQGLWDPASEYIYFCSKHFEEDCFELVGISGYHRLKEGAVPTIFESFSKLRRTTKTKGHSYPPGPAEVSRLRRCRKRCSEGRGPTTPFSPPPPADVTCFPVEEASAPATLPASPAGRLEPGLSSPFSDLLGPLGAQADEAGCSAQPSPERQPSPLEPRPVSPSAYMLRLPPPAGAYIQNEHSYQVGSALLWKRRAEAALDALDKAQRQLQACKRREQRLRLRLTKLQQERAREKRAQADARQTLKEHVQDFAMQLSSSMA
B5: Keratin-associated protein 26-1 (Homo sapiens), Q6PEX3 (parent)
chain: MSCPNYCSGNSNSGSLRTSRHIPLTSIDLCPTSVSCGDVLYLPTSSQDHTWVTDNCQETCGEPTSCQPVHCETGNLETSCGSSTAYYVPRPCQGSSFLPASFFSSSCLPVSCRPQRYVSSGCRPLRPLLNSYQPIGDCVPNAYRPQFCLSKSCQPQNLLTSGCQPSSCLAYRPQSLHVVSSSLRPLGPLFSGCQPLTHVFSTCRPSCSGL
B6: Zinc finger protein Aiolos (Homo sapiens), Q9UKT9 (parent)
chain: MEDIQTNAELKSTQEQSVPAESAAVLNDYSLTKSHEMENVDSGEGPANEDEDIGDDSMKVKDEYSERDENVLKSEPMGNAEEPEIPYSYSREYNEYENIKLERHVVSFDSSRPTSGKMNCDVCGLSCISFNVLMVHKRSHTGERPFQCNQCGASFTQKGNLLRHIKLHTGEKPFKCHLCNYACQRRDALTGHLRTHSVEKPYKCEFCGRSYKQRSSLEEHKERCRTFLQSTDPGDTASAEARHIKAEMGSERALVLDRLASNVAKRKSSMPQKFIGEKRHCFDVNYNSSYMYEKESELIQTRMMDQAINNAISYLGAEALRPLVQTPPAPTSEMVPVISSMYPIALTRAEMSNGAPQELEKKSIHLPEKSVPSERGLSPNNSGHDSTDTDSNHEERQNHIYQQNHMVLSRARNGMPLLKEVPRSYELLKPPPICPRDSVKVINKEGEVMDVYRCDHCRVLFLDYVMFTIHMGCHGFRDPFECNMCGYRSHDRYEFSSHIARGEHRALLK
partner: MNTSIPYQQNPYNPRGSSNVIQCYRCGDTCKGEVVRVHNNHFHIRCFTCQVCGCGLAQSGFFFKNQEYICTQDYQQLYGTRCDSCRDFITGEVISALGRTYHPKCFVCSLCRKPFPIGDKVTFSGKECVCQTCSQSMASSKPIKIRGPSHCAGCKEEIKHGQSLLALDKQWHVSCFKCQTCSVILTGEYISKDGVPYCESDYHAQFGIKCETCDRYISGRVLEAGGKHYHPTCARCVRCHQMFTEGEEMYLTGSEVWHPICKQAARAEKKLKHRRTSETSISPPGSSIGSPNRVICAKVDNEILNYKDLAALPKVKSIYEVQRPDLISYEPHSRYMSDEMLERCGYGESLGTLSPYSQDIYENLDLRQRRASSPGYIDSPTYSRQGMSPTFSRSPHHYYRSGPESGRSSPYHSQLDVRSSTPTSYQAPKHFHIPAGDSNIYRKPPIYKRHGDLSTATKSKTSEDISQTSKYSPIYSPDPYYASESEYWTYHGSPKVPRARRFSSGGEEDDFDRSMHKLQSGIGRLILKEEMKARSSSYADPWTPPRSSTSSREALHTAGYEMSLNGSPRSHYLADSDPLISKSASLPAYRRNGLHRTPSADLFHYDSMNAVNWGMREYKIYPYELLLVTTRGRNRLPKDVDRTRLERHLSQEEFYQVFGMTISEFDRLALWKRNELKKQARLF
B7: 5'-AMP-activated protein kinase subunit beta-2 (Homo sapiens), O43741 (parent)
chain: MGNTTSDRVSGERHGAKAARSEGAGGHAPGKEHKIMVGSTDDPSVFSLPDSKLPGDKEFVSWQQDLEDSVKPTQQARPTVIRWSEGGKEVFISGSFNNWSTKIPLIKSHNDFVAILDLPEGEHQYKFFVDGQWVHDPSEPVVTSQLGTINNLIHVKKSDFEVFDALKLDSMESSETSCRDLSSSPPGPYGQEMYAFRSEERFKSPPILPPHLLQVILNKDTNISCDPALLPEPNHVMLNHLYALSIKDSVMVLSATHRYKKKYVTTLLYKPI
partner: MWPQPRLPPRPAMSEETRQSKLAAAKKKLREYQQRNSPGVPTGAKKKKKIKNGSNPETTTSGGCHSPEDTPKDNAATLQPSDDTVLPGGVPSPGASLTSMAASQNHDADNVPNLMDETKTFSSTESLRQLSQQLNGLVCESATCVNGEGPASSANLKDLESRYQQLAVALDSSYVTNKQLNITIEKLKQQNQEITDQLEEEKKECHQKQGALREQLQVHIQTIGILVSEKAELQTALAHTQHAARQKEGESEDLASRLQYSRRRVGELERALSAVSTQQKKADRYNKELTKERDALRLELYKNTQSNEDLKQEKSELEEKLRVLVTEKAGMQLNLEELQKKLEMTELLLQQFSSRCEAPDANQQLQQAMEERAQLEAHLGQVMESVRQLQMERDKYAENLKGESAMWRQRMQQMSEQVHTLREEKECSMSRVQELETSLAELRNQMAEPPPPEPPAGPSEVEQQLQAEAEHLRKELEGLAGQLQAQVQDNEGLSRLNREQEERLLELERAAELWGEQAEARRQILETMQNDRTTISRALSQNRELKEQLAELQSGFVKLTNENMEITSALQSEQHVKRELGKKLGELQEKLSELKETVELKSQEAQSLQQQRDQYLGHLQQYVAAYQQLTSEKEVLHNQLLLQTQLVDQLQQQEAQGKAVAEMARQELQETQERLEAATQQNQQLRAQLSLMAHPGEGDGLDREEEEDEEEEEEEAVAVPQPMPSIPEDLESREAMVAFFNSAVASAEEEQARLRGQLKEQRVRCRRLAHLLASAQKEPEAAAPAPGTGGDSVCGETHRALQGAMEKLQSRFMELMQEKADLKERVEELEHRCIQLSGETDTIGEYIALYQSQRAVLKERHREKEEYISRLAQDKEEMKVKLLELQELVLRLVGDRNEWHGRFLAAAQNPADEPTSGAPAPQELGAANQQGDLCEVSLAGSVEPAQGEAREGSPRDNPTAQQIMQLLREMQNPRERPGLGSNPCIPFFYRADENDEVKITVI

The variants in one test derive from B1. The following applies: with cep70_human CEP70, Q8NHQ1.
Chain of cep70_human CEP70, Q8NHQ1 (Q8NHQ1 whole entry): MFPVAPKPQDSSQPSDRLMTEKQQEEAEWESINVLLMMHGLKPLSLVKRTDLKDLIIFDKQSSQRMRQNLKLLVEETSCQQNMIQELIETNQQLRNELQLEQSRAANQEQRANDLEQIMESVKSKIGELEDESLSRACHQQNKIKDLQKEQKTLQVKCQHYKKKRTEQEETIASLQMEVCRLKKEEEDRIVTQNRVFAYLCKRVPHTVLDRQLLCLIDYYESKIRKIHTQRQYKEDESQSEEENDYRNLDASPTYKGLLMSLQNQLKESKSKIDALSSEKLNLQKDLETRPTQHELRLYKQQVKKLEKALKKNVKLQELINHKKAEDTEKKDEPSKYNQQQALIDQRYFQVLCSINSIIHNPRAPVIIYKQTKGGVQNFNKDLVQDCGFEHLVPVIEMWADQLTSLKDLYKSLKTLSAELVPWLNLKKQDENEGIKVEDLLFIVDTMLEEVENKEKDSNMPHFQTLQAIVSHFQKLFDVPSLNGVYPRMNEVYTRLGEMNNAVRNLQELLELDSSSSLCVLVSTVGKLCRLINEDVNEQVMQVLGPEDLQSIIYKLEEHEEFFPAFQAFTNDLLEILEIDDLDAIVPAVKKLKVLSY
For the variant S7G, the “effect of a mutation on the interaction” value is reported as “with no effect”.

A further test covers variants of B2. The following applies: with sdcb1_human SDCBP.
In the case of P131S, the “effect of a mutation on the interaction” value was “with no effect”.

With V244M, the “effect of a mutation on the interaction” value is recorded as “with no effect”.

A further test covers variants of B3. The following applies: with tri54_human TRIM54, Q9BYV2.
On to P177A, for which the “effect of a mutation on the interaction” value is on record as “with no effect”.

Variants of B4 are the subject of a further test. The following applies: with mdfi_human MDFI.
On to E168D, for which the “effect of a mutation on the interaction” value is reported as “disrupting interaction strength”.

In another test the parent is B4. The following applies: with traf2_human TRAF2, Q12933.
Chain of traf2_human TRAF2, Q12933 (Q12933 whole entry): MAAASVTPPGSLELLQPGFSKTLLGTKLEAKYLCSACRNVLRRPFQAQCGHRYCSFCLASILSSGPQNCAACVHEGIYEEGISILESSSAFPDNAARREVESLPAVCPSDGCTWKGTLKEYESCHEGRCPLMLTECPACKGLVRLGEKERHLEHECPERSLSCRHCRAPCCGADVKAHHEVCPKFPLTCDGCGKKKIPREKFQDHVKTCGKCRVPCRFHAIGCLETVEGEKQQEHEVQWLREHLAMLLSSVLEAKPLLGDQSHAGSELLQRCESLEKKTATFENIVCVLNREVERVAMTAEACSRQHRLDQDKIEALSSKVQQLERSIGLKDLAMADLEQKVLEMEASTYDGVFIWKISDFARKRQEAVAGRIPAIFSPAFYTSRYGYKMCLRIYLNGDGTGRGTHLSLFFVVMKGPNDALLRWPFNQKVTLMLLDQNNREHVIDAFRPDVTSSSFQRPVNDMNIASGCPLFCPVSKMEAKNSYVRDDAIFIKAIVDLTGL
As to E168D, the “effect of a mutation on the interaction” value is reported as “with no effect”.

Variants of B4 are the subject of the next test. The following applies: with set_human SET.
For E168D, the “effect of a mutation on the interaction” value is recorded as “with no effect”.

The variants in the next test derive from B5. The following applies: with grn_human GRN.
Regarding S26Y, the “effect of a mutation on the interaction” value was “disrupting interaction strength”.

In another test the parent is B5. The following applies: with ccnjl_human CCNJL.
With S26Y, the “effect of a mutation on the interaction” value was “with no effect”.

In another test the parent is B6. The following applies: with ablm3_human ABLIM3, O94929.
For the variant N119D, the “effect of a mutation on the interaction” value is “with no effect”.

A24V: the “effect of a mutation on the interaction” value was “with no effect”.

Another test covers variants of B7. The following applies: with goga2_human GOLGA2, Q08379.
For the variant G55E, the “effect of a mutation on the interaction” value was “with no effect”.
